Series [1] concerns the molecule itself. The series is described as follows: glycerol gradient sedimentation.
The next series has as its target T1, MthRnl (Methanobacterium thermoautotrophicum ΔH, UniProt O27289 1-381).
T1 sequence: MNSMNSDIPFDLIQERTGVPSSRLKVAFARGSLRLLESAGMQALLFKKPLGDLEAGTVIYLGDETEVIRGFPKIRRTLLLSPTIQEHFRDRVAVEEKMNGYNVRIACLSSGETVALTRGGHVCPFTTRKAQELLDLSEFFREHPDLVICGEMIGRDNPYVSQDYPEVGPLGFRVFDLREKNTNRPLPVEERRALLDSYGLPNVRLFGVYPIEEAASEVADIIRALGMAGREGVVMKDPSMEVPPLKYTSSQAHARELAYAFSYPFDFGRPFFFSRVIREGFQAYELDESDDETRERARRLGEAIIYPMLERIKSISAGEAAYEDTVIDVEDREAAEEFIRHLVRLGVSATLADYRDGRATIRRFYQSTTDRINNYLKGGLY
Briefly: EMSA.

B1: Methanobacterium RNA ligase (MthRnl), full-length, His10-tagged (enzyme, Methanobacterium thermoautotrophicum ΔH, UniProt O27289 1-381, looked up)
chain: MNSMNSDIPFDLIQERTGVPSSRLKVAFARGSLRLLESAGMQALLFKKPLGDLEAGTVIYLGDETEVIRGFPKIRRTLLLSPTIQEHFRDRVAVEEKMNGYNVRIACLSSGETVALTRGGHVCPFTTRKAQELLDLSEFFREHPDLVICGEMIGRDNPYVSQDYPEVGPLGFRVFDLREKNTNRPLPVEERRALLDSYGLPNVRLFGVYPIEEAASEVADIIRALGMAGREGVVMKDPSMEVPPLKYTSSQAHARELAYAFSYPFDFGRPFFFSRVIREGFQAYELDESDDETRERARRLGEAIIYPMLERIKSISAGEAAYEDTVIDVEDREAAEEFIRHLVRLGVSATLADYRDGRATIRRFYQSTTDRINNYLKGGLY
A word on the stoichiometry N: it is a count of units in the complex or per binding partner. Regarding B1, the “stoichiometry N” value in series [1] was determined as 2.

Usually Kd stands for the constant that tells how readily two partners part at equilibrium. In the series with MthRnl, ATTCCGATAGTGCGTGTCGCCCTT (ssDNA, 5'-phosphate) [pDNA 24-mer] had a Kd of approximately 2000 nM.

As for AUUCCGAUAGUGCGUGUCGCCCUU (ssRNA, 5'-phosphate) [pRNA 24-mer], the Kd with MthRnl is approximately 1500 nM.

The record behind these values is article PMC2577357 (Nucleic Acids Research, 2008).
